Laboratory results published in US20200308301A1 (Novartis, published 2020).

Tests used:
[1] = molecular target: NOV1401; assay: cell-based or functional assay
[2] = molecular target: T1, NOV1401; assay: Solution equilibrium titration (SET), 1:1 fit, average
T1 construct: It was amine-coupled to the chip in SPR, and used soluble and biotinylated in SET; also called anti-FXI/FXIa antibody NOV1401; anti-Factor XI/FXIa antibody NOV1401
Protocol: (§1) 14 serial (2×) dilutions of NOV1401 were prepared in sample buffer (PBS pH 7.4 containing 0.5% (w/v) BSA and 0.02% Tween 20) and a constant concentration of the anti-NOV1401 Fab or IgG was added to each NOV1401 concentration ranging from 40 pM to 240 pM. Optimal constant anti-NOV1401 Fab or IgG concentrations and optimal starting concentrations for NOV1401 dilution series were determined in pilot experiments.
(§2) After incubation and three times washing with PBST (PBS containing 0.05% Tween 20) 30 μl/well of the NOV1401/anti-NOV1401 Fab or IgG preparation was transferred from the polypropylene MTP to the NOV1401-coated SA plate and incubated for 30 min at RT on a MTP shaker. After three additional wash steps, 30 μl of 0.5 μg/ml detection antibody (Goat anti-human Kappa LC-HRP, BETHYL # A80-115P) diluted in sample buffer was added to each well and incubated for 1 h at RT with shaking. After washing the plate again three times, 30 μl of detection reagent (LumiGLO Peroxidase Chemiluminescent Substrate, KPL #54-61-01) was added to each well. Electrochemiluminescence (ECL) signals were generated and detected immediately with a luminescence imager (SpectraMax M5, Molecular Devices, LLC).
Average ECL-signals were calculated from duplicate measurements within each assay. Data were baseline adjusted by subtracting the lowest value from all data points and plotted against the corresponding antigen concentration. KD values were determined by fitting the plot with the following non-linear curve fitting model for 1:1 binding according to Haenel et al 2005: […]

[3] = molecular target: T1, NOV1401; assay: SPR (ProteOn XPR36), NOV1401 immobilized, Fab as analyte, 1:1 Langmuir fit, average
Protocol: SPR binding experiments were performed on a ProteOn XPR36 instrument (Bio-Rad Laboratories, Inc.) in PBS/T buffer (50 mM phosphate, 150 mM NaCl, pH 7.4, 0.005% v/v Tween-20) at 25° C. NOV1401 (‘Ligand’) was immobilized onto an activated ProteOn GLC sensor chip (Bio-Rad Laboratories, Inc.) using standard amine coupling procedures as described by the manufacturer. Briefly, NOV1401 was injected at a concentration of 10 μg/ml in 20 mM sodium acetate, pH 5.0 and at a flow rate of 30 μl/min for 10 min. Unreacted groups were blocked by injecting 1 M ethanolamine.
For kinetic studies anti-NOV1401 Fabs (‘Analytes’) were diluted in PBS/T buffer to generate a dilution series with concentrations ranging from 0.125-4 nM. Fabs were injected onto surfaces with immobilized NOV1401 at a flow rate of 100 μL/min and sensorgrams were recorded for association and dissociation times of 220 s and 1800 s, respectively. Blank surfaces were used for background corrections. There was no need to regenerate surfaces since the ProteOn protein interaction array system allows to run up to six binding experiments on an identical surface in parallel.
Data processing and analysis including kon, koff, and KD determination were performed with the ProteOn Manager™ software version 3.1.0.6.

[4] = molecular target: T1, NOV1401; assay: cell-based or functional assay; remark: listed apart in the source
[5] = molecular target: T1, NOV1401; assay: SET (solution equilibrium titration): constant anti-NOV1401 Fab with a NOV1401 dilution series, free Fab captured on a biotinylated-NOV1401 streptavidin plate, luminescence (RLU), 1:1 fit
Protocol: as §1
as §2, with “After washing the plate again three times, 30 μl of detection reagent (LumiGLO Peroxidase Chemiluminescent Substrate, KPL #54-61-01) was added to each well.” left out
(§3) Average ECL-signals were calculated from duplicate measurements within each assay. […] KD values were determined by fitting the plot with the following non-linear curve fitting model for 1:1 binding according to Haenel et al 2005: […]
Target sequence in this assay (VL, as listed by the source): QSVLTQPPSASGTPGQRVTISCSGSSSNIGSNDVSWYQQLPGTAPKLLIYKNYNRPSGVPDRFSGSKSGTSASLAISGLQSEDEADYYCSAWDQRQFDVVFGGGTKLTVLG

[6] = molecular target: T1, NOV1401; assay: Solution equilibrium titration (SET), IgG, 1:1 fit, average
Protocol: as §1
as §2, with “After washing the plate again three times, 30 μl of detection reagent (LumiGLO Peroxidase Chemiluminescent Substrate, KPL #54-61-01) was added to each well.” left out
as §3
Target sequence in this assay (VL, as listed by the source): as above

Binder | TGA percentage reversal, NOV1401/anti NOV1401 ratio 1/1 (n/n) [1] [%] | TGA percentage reversal, NOV1401/anti NOV1401 ratio 1/3 (n/n) [1] [%] | TGA percentage reversal, NOV1401/anti NOV1401 ratio 1/10 (n/n) [1] [%] | Kd [2] [nM] | Kd [3] [nM] | aPTT percentage reversal, NOV1401/anti NOV1401 ratio 1/1 (n/n) [4] [%] | aPTT percentage reversal, NOV1401/anti NOV1401 ratio 1/3 (n/n) [4] [%] | aPTT percentage reversal, NOV1401/anti NOV1401 ratio 1/10 (n/n) [4] [%] | Kd [5] [nM] | Kd [6] [nM]
IDT2 (Fab, V domains shown, Fab; also called anti-NOV1401 Fab IDT2) VH: QVQLVESGGGLVKPGGSLRLSCAASGFTFSSAAVHWVRQAPGKGLEWVGRIKSKADGGTTDYAAPVKGRFTISRDDSKNTLYLQMNSLKTEDTAVYYCARDSPSISSYSIPYFSGMDVWGQGTLVTVSS VL: DIQMTQSPSSLSASVGDRVTITCRASQGIRAWLNWYQQKPGKAPKLLIYAASSLQSGVPSRFSGSGSGTDFTLTISSLQPEDFATYYCHQYITHPPTFGQGTKVEIKR | 55 | 57 | 61 | 0.1 | 0.23 | 21 | 42 | 55 |  | 
IDT4 (Fab, V domains shown, Fab; also called anti-NOV1401 Fab IDT4) VH: QVQLVESGGGLVKPGGSLRLSCAASGFTFSSAAVHWVRQAPGKGLEWVGRIKSKASGGTTDYAAPVKGRFTISRDDSKNTLYLQMNSLKTEDTAVYYCARDSPSISSYSIPYFSGMDVWGQGTLVTVSS VL: DIQMTQSPSSLSASVGDRVTITCRASQGIRAWLNWYQQKPGKAPKLLIYAASSLQSGVPSRFSGSGSGTDFTLTISSLQPEDFATYYCHQYITHPPTFGQGTKVEIKR | 33 | 53 | 60 | 0.97 | 0.31 | 10 | 27 | 39 |  | 
IDT5 (Fab, V domains shown, Fab; also called anti-NOV1401 Fab IDT5) VH: QVQLVESGGGLVKPGGSLRLSCAASGFTFSSAAVHWVRQAPGKGLEWVGRIKSKADAGTTDYAAPVKGRFTISRDDSKNTLYLQMNSLKTEDTAVYYCARDSPSISSYSIPYFSGMDVWGQGTLVTVSS VL: DIQMTQSPSSLSASVGDRVTITCRASQGIRAWLNWYQQKPGKAPKLLIYAASSLQSGVPSRFSGSGSGTDFTLTISSLQPEDFATYYCHQYITHPPTFGQGTKVEIKR | 55 | 56 | 72 | 0.14 | 0.35 | 17 | 42 | 56 |  | 
IDT6 (Fab, V domains shown, Fab with a lambda light chain; also called anti-NOV1401 Fab IDT6) VH: QVQLVQSGAEVKKPGESLKISCKGSGYSFTNYWIGWVRQMPGKGLEWMGIIFPGVSYTKYSPSFQGQVTISADKSISTAYLQWSSLKASDTAMYYCARGSDQTLRGSRAMDYWGQGTLVTVSS VL: QSALTQPASVSGSPGQSITISCTGTSSDVGISNYVSWYQQHPGKAPKLMIYEVSNRPSGVSNRFSGSKSGNTASLTISGLQAEDEADYYCQSYTSLNYVFGGGTKLTVLG | 18 | 41 | 37 |  | 10.1 | 9 | 22 | 38 |  | 
IDT7 (Fab, V domains shown, Fab; also called anti-NOV1401 Fab IDT7) VH: QVQLVESGGGLVKPGGSLRLSCAASGFTFSSNAMHWVRQAPGKGLEWVGRIKSKTDGGTTDYAAPVKGRFTISRDDSKNTLYLQMNSLKTEDTAVYYCARDHYYYPFAYWGQGTLVTVSS VL: DIQMTQSPSSLSASVGDRVTITCRASQSIRYNLAWYQQKPGKAPKLLIYAASSLQSGVPSRFSGSGSGTDFTLTISSLQPEDFATYYCHQYIAKPITFGQGTKVEIKR | 50 | 66 | 71 | 0.96 | 0.33 | 16 | 37 | 54 | 0.16 | 
IDT8 (Fab, V domains shown, Fab; also called anti-NOV1401 Fab IDT8) VH: QVQLVESGGGLVKPGGSLRLSCAASGFTFSSNAMHWVRQAPGKGLEWVGRIKSKTSGGTTDYAAPVKGRFTISRDDSKNTLYLQMNSLKTEDTAVYYCARDHYYYPFAYWGQGTLVTVSS VL: DIQMTQSPSSLSASVGDRVTITCRASQSIRYNLAWYQQKPGKAPKLLIYAASSLQSGVPSRFSGSGSGTDFTLTISSLQPEDFATYYCHQYIAKPITFGQGTKVEIKR | 41 | 56 | 69 | 0.16 | 2.15 | 8 | 25 | 42 | 0.96 | 
IDT9 (Fab, V domains shown, Fab; also called anti-NOV1401 Fab IDT9) VH: QVQLVQSGAEVKKPGASVKVSCKASGYTFTNYYVHWVRQAPGQGLEWMGWINPYNGNTNYAQKFQGRVTMTRDTSISTAYMELSRLRSEDTAVYYCARGASSIRMSYYLDVWGQGTLVTVSS VL: DIQMTQSPSSLSASVGDRVTITCRASQSISNYLNWYQQKPGKAPKLLIYAASNLQSGVPSRFSGSGSGTDFTLTISSLQPEDFATYYCFQYTHSPATFGQGTKVEIKR | 41 | 61 | 72 | 0.68 | 1.92 | 10 | 25 | 46 |  | 
IDT10 (Fab, V domains shown, Fab; also called anti-NOV1401 Fab IDT10) VH: QVQLVQSGAEVKKPGASVKVSCKASGYTFTNYYVHWVRQAPGQGLEWMGWINPYSGNTNYAQKFQGRVTMTRDTSISTAYMELSRLRSEDTAVYYCARGASSIRMSYYLDVWGQGTLVTVSS VL: DIQMTQSPSSLSASVGDRVTITCRASQSISNYLNWYQQKPGKAPKLLIYAASNLQSGVPSRFSGSGSGTDFTLTISSLQPEDFATYYCFQYTHSPATFGQGTKVEIKR | 37 | 45 | 57 | 1.19 | 5.97 | 12 | 25 | 40 |  | 
IDT11 (antibody, human IgG1, kappa, V domains shown, also called anti-NOV1401 IgG IDT11; full length IgG format for IDT1) VH: QVQLLESGGGLVQPGGSLRLSCAASGFTFSDYAMSWVRQAPGKGLEWVSVIDYSSSNTYYADSVKGRFTISRDNSKNTLYLQMNSLRAEDTAVYYCAREGYSYRSIRFDYWGQGTLVTVSS VL: DIQMTQSPSSLSASVGDRVTITCRASQSISSNLNWYQQKPGKAPKLLIYAASNLQSGVPSRFSGSGSGTDFTLTISSLQPEDFATYYCLQFDHTPFTFGQGTKVEIKR | 50 | 59 | 67 |  |  | 19 | 55 | 57 |  | 0.0007
IDT12 (antibody, human IgG1, kappa, V domains shown, also called anti-NOV1401 IgG IDT12; full length IgG format for IDT2) VH: QVQLVESGGGLVKPGGSLRLSCAASGFTFSSAAVHWVRQAPGKGLEWVGRIKSKADGGTTDYAAPVKGRFTISRDDSKNTLYLQMNSLKTEDTAVYYCARDSPSISSYSIPYFSGMDVWGQGTLVTVSS VL: DIQMTQSPSSLSASVGDRVTITCRASQGIRAWLNWYQQKPGKAPKLLIYAASSLQSGVPSRFSGSGSGTDFTLTISSLQPEDFATYYCHQYITHPPTFGQGTKVEIKR | 60 | 64 | 62 |  |  | 9 | 51 | 61 |  | 0.0051
